Measurements taken from article PMC2111462.

Biological target: purified rat skin collagen type I (rat) (UniProt P02454)
Experiment: affinity chromatography

Sequence of UniProt P02454 (P02454 152-1207, chain 1 of 2): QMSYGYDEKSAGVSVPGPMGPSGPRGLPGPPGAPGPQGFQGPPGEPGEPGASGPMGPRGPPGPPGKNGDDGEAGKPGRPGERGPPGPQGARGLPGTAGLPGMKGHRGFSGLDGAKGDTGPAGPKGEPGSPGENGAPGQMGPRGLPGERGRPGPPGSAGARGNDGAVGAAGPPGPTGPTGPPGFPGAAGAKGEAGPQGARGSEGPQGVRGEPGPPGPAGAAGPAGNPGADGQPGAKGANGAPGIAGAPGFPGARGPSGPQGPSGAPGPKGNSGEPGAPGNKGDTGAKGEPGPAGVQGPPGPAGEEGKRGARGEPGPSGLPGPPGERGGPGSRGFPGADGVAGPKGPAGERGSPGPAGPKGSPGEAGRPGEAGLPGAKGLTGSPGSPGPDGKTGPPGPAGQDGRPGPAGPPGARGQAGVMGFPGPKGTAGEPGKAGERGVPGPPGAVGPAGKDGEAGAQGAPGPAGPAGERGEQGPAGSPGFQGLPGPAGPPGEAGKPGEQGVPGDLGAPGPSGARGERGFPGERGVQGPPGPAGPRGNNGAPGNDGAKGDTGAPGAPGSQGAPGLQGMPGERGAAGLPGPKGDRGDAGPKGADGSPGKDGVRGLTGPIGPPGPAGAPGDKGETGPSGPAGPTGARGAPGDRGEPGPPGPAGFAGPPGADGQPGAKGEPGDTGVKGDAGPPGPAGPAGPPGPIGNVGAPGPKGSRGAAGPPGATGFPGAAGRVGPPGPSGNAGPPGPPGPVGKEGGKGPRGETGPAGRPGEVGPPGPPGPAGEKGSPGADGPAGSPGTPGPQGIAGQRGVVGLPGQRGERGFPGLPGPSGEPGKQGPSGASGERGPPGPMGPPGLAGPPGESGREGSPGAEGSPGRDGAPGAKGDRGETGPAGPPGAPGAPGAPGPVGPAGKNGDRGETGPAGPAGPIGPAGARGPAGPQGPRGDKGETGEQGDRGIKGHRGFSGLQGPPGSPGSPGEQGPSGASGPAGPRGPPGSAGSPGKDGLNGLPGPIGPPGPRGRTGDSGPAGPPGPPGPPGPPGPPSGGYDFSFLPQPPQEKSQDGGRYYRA
Sequence of UniProt P02454 (P02466 86-1125, chain 2 of 2, further chain): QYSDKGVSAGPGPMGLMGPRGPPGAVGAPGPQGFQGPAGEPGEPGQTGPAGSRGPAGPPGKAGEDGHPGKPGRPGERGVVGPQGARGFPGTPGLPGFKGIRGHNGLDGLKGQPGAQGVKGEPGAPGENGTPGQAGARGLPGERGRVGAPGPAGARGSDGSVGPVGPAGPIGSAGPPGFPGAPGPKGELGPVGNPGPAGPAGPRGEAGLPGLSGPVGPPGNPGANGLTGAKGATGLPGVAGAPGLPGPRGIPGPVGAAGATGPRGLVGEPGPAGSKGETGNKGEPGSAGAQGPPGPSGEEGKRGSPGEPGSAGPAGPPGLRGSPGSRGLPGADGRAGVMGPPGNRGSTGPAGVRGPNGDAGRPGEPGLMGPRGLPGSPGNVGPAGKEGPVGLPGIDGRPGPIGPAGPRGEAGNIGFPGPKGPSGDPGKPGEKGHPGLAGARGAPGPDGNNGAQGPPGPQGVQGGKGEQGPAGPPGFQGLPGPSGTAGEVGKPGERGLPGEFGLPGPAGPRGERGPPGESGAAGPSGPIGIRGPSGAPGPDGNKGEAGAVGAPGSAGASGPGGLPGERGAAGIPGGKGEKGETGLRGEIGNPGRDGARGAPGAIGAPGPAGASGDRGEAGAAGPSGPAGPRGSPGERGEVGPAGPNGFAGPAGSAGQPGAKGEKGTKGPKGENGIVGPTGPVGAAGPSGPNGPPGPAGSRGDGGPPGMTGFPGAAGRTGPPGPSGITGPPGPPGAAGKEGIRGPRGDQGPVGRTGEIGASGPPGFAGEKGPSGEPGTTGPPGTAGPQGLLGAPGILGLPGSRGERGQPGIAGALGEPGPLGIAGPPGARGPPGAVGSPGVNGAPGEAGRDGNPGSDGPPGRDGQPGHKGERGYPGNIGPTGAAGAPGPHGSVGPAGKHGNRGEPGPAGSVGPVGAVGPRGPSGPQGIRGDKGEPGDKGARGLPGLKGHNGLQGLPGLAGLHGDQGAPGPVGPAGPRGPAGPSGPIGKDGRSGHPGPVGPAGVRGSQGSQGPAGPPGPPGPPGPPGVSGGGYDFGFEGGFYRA

KBr concentration at which the bound fibronectin eluted: 1 M
Substance: human plasma fibronectin (natural protein)
